# Source: PMC11826918, “Generation of antagonistic biparatopic anti-CD30 antibody from an agonistic antibody by precise epitope determination and utilization of structural characteristics of CD30 molecule” (Antibody Therapeutics, 2025)
# B1: Maltose-binding protein-fused CD30 (domain or fragment)
# chain: FPQDRPFEDTCHGNPSHYYDKAVRRCCYRCPMGLFPTQQCPQRPTDCRKQCEPDYYLDEADRCTACVTCSRDDLVEKTPCAWNSSRVCECRPGMFCSTSAVNSCARCFFHSVCPAGMIVKFPGTAQKNTVCEPASPGVSPACASPENCKEPSSGTIPQAKPTPVSPATSSASTMPVRGGTRLAQEAASKLTRAPDSPSSVGRPSSDPGLSPTQPCPEGSGDCRKQCEPDYYLDEAGRCTACVSCSRDDLVEKTPCAWNSSRTCECRPGMICATSATNSCARCVPYPICAAETVTKPQDMAEKDTTFEAPPLGTQPDCN
# modifications: Construct 1-336 includes signal peptide 1-18, taken as cleaved on secretion; C-terminal MBP carrier and His tag left out; disulfide-bonded, likely glycosylated (Expi293)
# Legend:
# Test in all cases: SPR; Biacore T200; antibody captured on anti-human Fc (CM5 chip); CD30-MBP flowed at 0, 2, 20 nM (T426: 0, 20, 200 nM), contact 90 s, dissociation 300 s; fit to a 1:1 binding mode; rough-level analysis
# Settings in all cases: both partners purified
# BpT10-105 = biological target: T1, BpT10-105
# T1 construct: AC10 Fv, N side; T105 Fv, C side; one Fab of each Fv; knobs-into-holes Fc; source: Expi293 fragments joined by intein-mediated protein trans-splicing, purified (Superdex 200 Increase); copies: + + +
# BpT10-6 = biological target: T2, BpT10-6
# T2 construct: AC10 Fv, N side; T6 Fv, C side; one Fab of each Fv; knobs-into-holes Fc; source: Expi293 fragments joined by intein-mediated protein trans-splicing, purified (Superdex 200 Increase); copies: + + +
# BpT427-405 = biological target: T3, BpT427-405
# T3 construct: T427 Fv, N side; T405 Fv, C side; one Fab of each Fv; knobs-into-holes Fc; source: Expi293 fragments joined by intein-mediated protein trans-splicing, purified (Superdex 200 Increase); copies: + + +
# BpT104-25 = biological target: T4, BpT104-25
# T4 construct: T104 Fv, N side; T25 Fv, C side; one Fab of each Fv; knobs-into-holes Fc; source: Expi293 fragments joined by intein-mediated protein trans-splicing, purified (Superdex 200 Increase); copies: + + +
# BpT405-6 = biological target: T5, BpT405-6
# T5 construct: T405 Fv, N side; T6 Fv, C side; one Fab of each Fv; knobs-into-holes Fc; source: Expi293 fragments joined by intein-mediated protein trans-splicing, purified (Superdex 200 Increase); copies: + + +
# BpT25-6 = biological target: T6, BpT25-6
# T6 construct: T25 Fv, N side; T6 Fv, C side; one Fab of each Fv; knobs-into-holes Fc; source: Expi293 fragments joined by intein-mediated protein trans-splicing, purified (Superdex 200 Increase); copies: + + +
# BpT25-405 = biological target: T7, BpT25-405
# T7 construct: T25 Fv, N side; T405 Fv, C side; one Fab of each Fv; knobs-into-holes Fc; source: Expi293 fragments joined by intein-mediated protein trans-splicing, purified (Superdex 200 Increase); copies: + + +
# BpT10-427 = biological target: T8, BpT10-427
# T8 construct: AC10 Fv, N side; T427 Fv, C side; one Fab of each Fv; knobs-into-holes Fc; source: Expi293 fragments joined by intein-mediated protein trans-splicing, purified (Superdex 200 Increase); copies: + + +
# BpT25-427 = biological target: T9, BpT25-427
# T9 construct: T25 Fv, N side; T427 Fv, C side; one Fab of each Fv; knobs-into-holes Fc; source: Expi293 fragments joined by intein-mediated protein trans-splicing, purified (Superdex 200 Increase); copies: + + +
# BpT107-427 = biological target: T10, BpT107-427
# T10 construct: T107 Fv, N side; T427 Fv, C side; one Fab of each Fv; knobs-into-holes Fc; source: Expi293 fragments joined by intein-mediated protein trans-splicing, purified (Superdex 200 Increase); copies: + + +
# BpT104-405 = biological target: T11, BpT104-405
# T11 construct: T104 Fv, N side; T405 Fv, C side; one Fab of each Fv; knobs-into-holes Fc; source: Expi293 fragments joined by intein-mediated protein trans-splicing, purified (Superdex 200 Increase); copies: + + +
# BpT105-6 = biological target: T12, BpT105-6
# T12 construct: T105 Fv, N side; T6 Fv, C side; one Fab of each Fv; knobs-into-holes Fc; source: Expi293 fragments joined by intein-mediated protein trans-splicing, purified (Superdex 200 Increase); copies: + + +
# T12 sequence (chain, as listed by the source, chain 1 of 4): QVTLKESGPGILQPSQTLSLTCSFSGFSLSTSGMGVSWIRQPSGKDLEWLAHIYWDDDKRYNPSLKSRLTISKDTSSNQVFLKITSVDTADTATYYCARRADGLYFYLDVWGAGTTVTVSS
# T12 sequence (chain, as listed by the source, chain 2 of 4): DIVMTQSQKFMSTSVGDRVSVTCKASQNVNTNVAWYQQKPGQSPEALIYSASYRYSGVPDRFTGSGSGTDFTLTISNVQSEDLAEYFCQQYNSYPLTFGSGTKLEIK
# T12 sequence (chain, as listed by the source, chain 3 of 4): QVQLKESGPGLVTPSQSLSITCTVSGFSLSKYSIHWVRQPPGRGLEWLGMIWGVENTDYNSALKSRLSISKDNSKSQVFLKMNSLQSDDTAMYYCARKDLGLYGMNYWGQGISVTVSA
# T12 sequence (chain, as listed by the source, chain 4 of 4): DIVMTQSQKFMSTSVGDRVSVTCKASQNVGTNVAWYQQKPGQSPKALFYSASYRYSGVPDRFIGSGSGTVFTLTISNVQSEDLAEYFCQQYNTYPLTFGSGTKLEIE
# T6 sequence (chain, as listed by the source, chain 1 of 4): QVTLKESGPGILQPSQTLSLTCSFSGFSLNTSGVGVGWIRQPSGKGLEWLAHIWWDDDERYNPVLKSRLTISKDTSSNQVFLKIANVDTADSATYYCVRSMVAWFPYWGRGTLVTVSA
# T6 sequence (chain, as listed by the source, chain 2 of 4): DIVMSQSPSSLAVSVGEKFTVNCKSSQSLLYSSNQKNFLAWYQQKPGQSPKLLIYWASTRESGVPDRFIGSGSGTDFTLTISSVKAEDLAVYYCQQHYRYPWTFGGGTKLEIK
# T9 sequence (chain, as listed by the source, chain 3 of 4): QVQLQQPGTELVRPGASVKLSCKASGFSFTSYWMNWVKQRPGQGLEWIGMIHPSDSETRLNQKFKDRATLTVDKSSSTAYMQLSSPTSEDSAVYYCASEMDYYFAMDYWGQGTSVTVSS
# T9 sequence (chain, as listed by the source, chain 4 of 4): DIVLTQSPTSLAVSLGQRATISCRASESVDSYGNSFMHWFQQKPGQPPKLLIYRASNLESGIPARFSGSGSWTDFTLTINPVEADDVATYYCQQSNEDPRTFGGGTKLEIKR
# T8 sequence (chain, as listed by the source, chain 1 of 4): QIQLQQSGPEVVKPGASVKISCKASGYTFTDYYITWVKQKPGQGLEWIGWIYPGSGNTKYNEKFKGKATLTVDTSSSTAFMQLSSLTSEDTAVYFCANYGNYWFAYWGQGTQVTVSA
# T8 sequence (chain, as listed by the source, chain 2 of 4): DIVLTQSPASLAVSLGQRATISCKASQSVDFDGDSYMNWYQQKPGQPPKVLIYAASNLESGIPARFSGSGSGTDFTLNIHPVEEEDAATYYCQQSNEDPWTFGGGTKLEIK
# T10 sequence (chain, as listed by the source, chain 1 of 4): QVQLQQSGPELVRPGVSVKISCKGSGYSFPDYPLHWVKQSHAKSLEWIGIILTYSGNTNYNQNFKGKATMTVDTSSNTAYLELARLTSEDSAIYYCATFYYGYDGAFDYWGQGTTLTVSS
# T10 sequence (chain, as listed by the source, chain 2 of 4): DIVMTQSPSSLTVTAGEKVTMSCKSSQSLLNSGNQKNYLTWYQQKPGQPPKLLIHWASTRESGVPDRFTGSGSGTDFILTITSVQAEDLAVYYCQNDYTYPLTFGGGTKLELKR
# T4 sequence (chain, as listed by the source, chain 1 of 4): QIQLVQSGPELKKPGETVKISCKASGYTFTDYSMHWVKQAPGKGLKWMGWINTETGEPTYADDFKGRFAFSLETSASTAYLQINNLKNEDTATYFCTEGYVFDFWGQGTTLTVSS
# T4 sequence (chain, as listed by the source, chain 2 of 4): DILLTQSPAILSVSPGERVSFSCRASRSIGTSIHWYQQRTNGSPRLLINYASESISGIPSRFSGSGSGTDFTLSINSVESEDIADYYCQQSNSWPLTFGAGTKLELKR
binder,measurement,setting,value
B1,Kd,BpT10-105,0.066 nM
same,Kd,BpT10-6,0.27 nM
same,Kd,BpT427-405,0.31 nM
same,Kd,BpT104-25,0.5 nM
same,Kd,BpT405-6,0.44 nM
same,Kd,BpT25-6,0.46 nM
same,Kd,BpT25-405,0.91 nM
same,Kd,BpT10-427,0.58 nM
same,Kd,BpT25-427,0.57 nM
same,Kd,BpT107-427,0.6 nM
same,Kd,BpT104-405,48 nM
same,Kd,BpT105-6,0.37 nM
